# According to IntAct's records for PubMed 15618422:
# B1: BTB/POZ and MATH domain-containing protein 1 (Arabidopsis thaliana (Mouse-ear cress)), Q8L765 (parent)
# chain: MGTTRVCSEVSSGSSKSLSQSLTVSTSTTETVNGFHEFKICGYSLAKGVGVGKYVASDTFMVGGYSWAIYFYPDGKSPEDNSSYVSLFIALASEGADVRALFELTLVDQSGNGKHKVHSHFGRALDSGPYTLKYRGSMWGYKRFFRRSSLESSDYLKENSLLVRCRVGVVKSVTEGPRYYNIPVPVSNLGQQLGNLLESGKGCDVVFQVDGETFNAHKLVLATRSPVFNAQLFGPLGDRNTKCITIEDMEAPIFKVLLHFIYWDELPDMQELIGTDSTLASTLVAQHLLAAADRYALERLKAICESKLCEGVAINTVATTLALAEQHHCLQLKAVCLKFVALPENLKAVMQTDGFDYLKESCPSLLTELLQYVARLSEHSVIVSGHRKEIFADGCDASGRRVKPRLH
# partner: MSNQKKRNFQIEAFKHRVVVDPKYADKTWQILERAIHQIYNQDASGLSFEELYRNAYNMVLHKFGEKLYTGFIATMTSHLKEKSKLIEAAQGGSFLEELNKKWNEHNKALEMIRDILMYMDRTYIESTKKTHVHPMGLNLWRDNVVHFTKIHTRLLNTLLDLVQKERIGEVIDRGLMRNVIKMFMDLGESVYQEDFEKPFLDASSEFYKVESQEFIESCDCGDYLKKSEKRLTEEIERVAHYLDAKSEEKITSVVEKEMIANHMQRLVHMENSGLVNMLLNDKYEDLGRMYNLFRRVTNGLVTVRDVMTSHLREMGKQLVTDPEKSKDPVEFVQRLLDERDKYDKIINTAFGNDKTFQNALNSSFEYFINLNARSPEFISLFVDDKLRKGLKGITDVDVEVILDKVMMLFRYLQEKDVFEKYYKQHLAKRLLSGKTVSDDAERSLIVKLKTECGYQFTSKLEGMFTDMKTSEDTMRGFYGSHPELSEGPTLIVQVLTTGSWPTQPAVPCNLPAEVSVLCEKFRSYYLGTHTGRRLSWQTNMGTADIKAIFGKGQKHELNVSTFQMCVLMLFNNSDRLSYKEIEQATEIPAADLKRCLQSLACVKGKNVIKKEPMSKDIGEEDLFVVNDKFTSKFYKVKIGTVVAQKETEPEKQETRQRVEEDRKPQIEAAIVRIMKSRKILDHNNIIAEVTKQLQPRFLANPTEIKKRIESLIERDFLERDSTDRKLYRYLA
# B2: Cullin-3A (Arabidopsis thaliana (Mouse-ear cress)), Q9ZVH4 (parent)
# chain: B1 partner
# partner: B1 chain
# Variants of: B1
# Details: with cul3a_arath CUL3A, Q9ZVH4
row,Variant,effect of a mutation on the interaction
1,D204A,decreasing interaction
2,D293A,decreasing interaction
3,Y295A,decreasing interaction

# Variants of: B2
# Details: with bpm1_arath BPM1, Q8L765
row,Variant,effect of a mutation on the interaction
1,S48A;F49A,decreasing interaction
